Where two headings read alike, the source gives them in different places. Ends that are not written are not given here.
How the values were obtained:
Experiment in all cases: cell-based or functional assay
[1] = molecular target: human Kv1.3 voltage-gated potassium channel (human) (UniProt P22001)
[2] = molecular target: human Kv1.3 channel (human) (UniProt P22001)
[3] = molecular target: human Kv1.1 channel (human) (UniProt Q09470)
[4] = molecular target: human Kv1.3 channel (human) (UniProt P22001); remark: listed apart in the source

human Kv1.3 channel (human), sequence (P22001 whole entry): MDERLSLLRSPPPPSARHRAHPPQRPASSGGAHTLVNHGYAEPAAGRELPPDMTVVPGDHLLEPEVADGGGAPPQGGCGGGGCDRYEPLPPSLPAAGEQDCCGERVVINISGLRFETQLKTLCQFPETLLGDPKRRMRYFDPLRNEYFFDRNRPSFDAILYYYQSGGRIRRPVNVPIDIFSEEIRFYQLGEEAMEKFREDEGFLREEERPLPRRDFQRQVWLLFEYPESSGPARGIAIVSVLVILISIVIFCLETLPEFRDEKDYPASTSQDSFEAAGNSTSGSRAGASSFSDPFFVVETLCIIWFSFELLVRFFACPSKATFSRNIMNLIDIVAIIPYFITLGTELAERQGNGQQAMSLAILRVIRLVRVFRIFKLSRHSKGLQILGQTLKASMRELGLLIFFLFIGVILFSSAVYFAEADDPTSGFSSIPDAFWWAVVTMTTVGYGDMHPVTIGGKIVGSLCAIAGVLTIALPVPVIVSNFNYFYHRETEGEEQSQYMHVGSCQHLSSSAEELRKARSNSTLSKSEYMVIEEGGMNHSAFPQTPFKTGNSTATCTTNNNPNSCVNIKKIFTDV
human Kv1.3 voltage-gated potassium channel (human), sequence (P22001 whole entry): as above
human Kv1.1 channel (human), sequence (Q09470 whole entry): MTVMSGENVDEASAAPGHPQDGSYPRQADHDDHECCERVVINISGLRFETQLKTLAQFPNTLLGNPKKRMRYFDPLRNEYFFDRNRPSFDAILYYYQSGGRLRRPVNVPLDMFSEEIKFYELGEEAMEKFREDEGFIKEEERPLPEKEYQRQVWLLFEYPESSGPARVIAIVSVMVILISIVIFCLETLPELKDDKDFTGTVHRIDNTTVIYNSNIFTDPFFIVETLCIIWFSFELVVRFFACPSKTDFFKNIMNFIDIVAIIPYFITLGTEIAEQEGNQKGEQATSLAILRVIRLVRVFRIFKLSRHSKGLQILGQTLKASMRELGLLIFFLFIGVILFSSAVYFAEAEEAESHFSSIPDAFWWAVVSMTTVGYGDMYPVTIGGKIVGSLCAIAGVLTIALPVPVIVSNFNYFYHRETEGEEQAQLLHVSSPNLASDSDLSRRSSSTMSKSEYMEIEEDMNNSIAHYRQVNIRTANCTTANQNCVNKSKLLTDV

20k PEG-ShK (peptide)
WB/IFNg (IC50, nM) [1]: 0.065 nM | WB/IL-2 (IC50, nM) [1]: 0.046 nM

E. coli-derived Fc-L-OSK1 (Fc fusion)
Kv1.3 IC50 by WCVC [2]: 3.2 nM

E. coli-derived Fc-L-ShK[1-35] (Fc fusion)
Kv1.3 IC50 by WCVC [2]: 1.4 nM

E. coli-derived Fc-L-ShK[2-35] (Fc fusion)
Kv1.3 IC50 by IWQ [2]: 2.8 nM | Kv1.3 IC50 by WCVC [2]: 1.3 nM

E. coli-derived ShK[2-35]-L-Fc (Fc fusion)
Kv1.3 IC50 by IWQ [2]: 4.9 nM

E. coli-derived Shk[1-35]-L-Fc (Fc fusion)
Kv1.3 IC50 by IWQ [2]: 2.4 nM

Fc-L10-OSK1 (Fc fusion)
fold loss of potency in Kv1.3 current block against synthetic OSK1 [2]: 5 fold

Fc-L25-ShK[2-35] (Fc fusion)
IC50, whole cell patch clamp electrophysiology on HEK293/Kv1.3 cells [2]: 150 pM

GGGGS-Osk1 (peptide)
WB/IFNg IC50 [2]: 2.2 nM | WB/IL-2 IC50 [2]: 1.36 nM

OSK1 (wild-type) (peptide)
Kv1.3 IC50, whole cell patch clamp [2]: 0.039 nM | Kv1.3 Selectivity (= Kv1.1/Kv.3 IC50) [2]: 5 fold | Kv1.1 IC50, whole cell patch clamp [3]: 0.202 nM

PEG-OSK1 (peptide)
peak IC50, whole cell patch clamp on HEK293 cells stably expressing human Kv1.3 [2]: 1.28 nM

Synthetic OSK1 (peptide)
hKv1.1/hKv1.3 (selectivity ratio of the IC50s) [2]: 4 fold | hKv1.3: IC50 [pM] [2]: 39 pM | hKv1.1: IC50 [pM] [3]: 160 pM

RSCIDTIPKSRCTAFQCKHSMKYRLSFCRKTCGTC (not fully specified; ends and bridges not checked) [20K PEG-ShK[1-35]]
peak IC50, whole cell patch clamp on HEK293 cells stably expressing human Kv1.3 [4]: 0.169 nM

Source: patent publication US20090291885A1
